The results in this text go back to patent US20230040008A1, “ANTI-HER2 POLYPEPTIDES DERIVATIVES AS NEW DIAGNOSTIC MOLECULAR PROBES” (BRACCO IMAGING S.P.A., priority 2019, published 2023).

“Also recorded” adds a separate entry of the source.

Series [1] addresses T1, recombinant human protein hHER2 (R&D Systems) (human, UniProt P04626 23-652).
T1 construct: also called human HER2 (hHER2) recombinant protein
Description: BLI (Octet), hHER2 on Protein A biosensors, steady state analysis. In general terms: In BLI a coated tip is dipped into the sample, and binding shifts an interference pattern.

In another series the target is T2, HER2/Fc chimeric protein (Homo sapiens, UniProt P04626).
T2 construct: Fc (immunoglobulin Fc fusion partner)
Description: Competitive ELISA of Aff02 versus trastuzumab-biotin or pertuzumab-biotin. The format is binding. The source says: A competitive ELISA assay has been developed in order to investigate if the epitope of the HER2/Neu antigen recognized by Aff02 polypeptide was distinct from the epitope recognized by the humanized monoclonal antibodies trastuzumab and pertuzumab, actually used in therapeutic treatments of HER2-positive tumors.
The first experiment, aimed at evaluating the quality of the assay, was a competitive ELISA assay carried out between trastuzumab and trastuzumab-biotin. Briefly, a Medisorp transparent plastic plate (96 wells, Thermo Scientific), was coated (64 wells) with 2.5 μg/mL of HER2/Fc chimeric protein in TBS pH 7.4 (1 h, RT). The wells were blocked with 0.5% BSA in TBS (1 h, RT).
At the end of the incubation, the plate was washed three times with 250 μL of TBS-T and incubated with Streptavidin-HRP 1:10000 in TBS-T (1 h at RT). The plate was washed again 3 times with TBS-T and developed 5 min with TMB reagent (100 μL). The reaction was blocked with 50 μL of sulfuric acid 2 M and read at 450 nm.
As positive control, the same experiment was repeated using an antibody anti RSGH TAG-HRP (1:4000) in place of streptavidin-HRP, in order to evaluate the curve affinity of Aff02 to HER2 receptor.
Briefly, a Medisorp transparent plastic plate (96 wells, Thermo Scientific) was coated (64 wells) with 2.5 μg/mL of Her2/Fc chimeric protein in TBS pH 7.4 (1 h, RT). The wells was blocked with 0.5% BSA in TBS (1 h, RT). […] At the end of the incubation, the plate was washed three times with 300 μL of TBS-T and incubated with Streptavidin-HRP 1:10000 or anti-RSGH TAG-HRP 1:4000 in TBS-T (1 h at RT). The plate was washed again 3 times with TBS-T and developed 5 min with TMB reagent (100 μL). The reaction was blocked with 50 μL of sulfuric acid 2 M and read at 450 nm.

The target in series [2] is T3, human HER2 (hHER2) recombinant protein (Homo sapiens, UniProt P04626).
T3 construct: purchased R&D Systems
Description: Biolayer interferometry (BLI) affinity assay on protein A biosensors coated with hHER2. The settings on record: 1:1 binding fit model. The method, then:
(§1) Affinity experiments were performed by Biolayer Interferometry (BLI) assay, using an Octet System and Protein A biosensors (ForteBio). Recombinant human protein hHER2 was purchased from R&D Systems (Minneapolis, US).
(§2) The affinity of the polypeptides of the invention for the target HER2 was measured by Biolayer interferometry assay. To this purpose, the protein A biosensors (ForteBio) were coated with human HER2 (hHER2) recombinant protein. After a brief wash with PBS, the coated sensor was assayed versus the affitin Aff02-0 at different concentrations (i.e. […], 500, 250, 125, 62.5, 31.3, 15.6 and 0 nM).
A curve fitting analysis was then performed in order to determine the dissociation equilibrium constant. The sensorgrams were analyzed using the Octet Data Analysis software 8.2 (ForteBio) with a 1:1 binding fit model to determine the dissociation equilibrium constant (Kd) and the related association and dissociation rate constants (kon and koff) with R^2 value assessing the fitting quality.
The affinity of the IRDye800CW-Aff02 conjugate to the target HER2 was measured by Biolayer interferometry assay. To this purpose, the protein A biosensors (ForteBio) were coated with human HER2 (hHER2) recombinant protein. After a brief wash with PBS, the coated sensor was assayed versus the IRDye800CW-Aff02 conjugate at different concentrations (i.e. 10000, 1000, 100, 10, 1, 0.1 ng/mL).
A steady state analysis was performed in order to determine the dissociation equilibrium constant. The sensorgrams were analyzed using the Octet Data Analysis software 8.2 (ForteBio) with a 1:1 binding fit model to determine the dissociation equilibrium constant (Kd).

On the set-up of series [3]: species or system Balb/c nu/nu mice. The settings on record: mouse, in vivo. As for the experimental part: In vivo imaging experiments were performed using the IVIS Spectrum In Vivo Imaging System (Perkin Elmer Inc.), equipped with 10 narrow band excitation filters (30 nm bandwidth) and 18 narrow band emission filters (20 nm bandwidth) spanning 430-850 nm.
In vivo optical imaging biodistribution of IRDye800CW-Aff02 was evaluated in healthy mice. Optical Imaging experiments on three healthy mice were performed using an IVIS Spectrum system after administration of IRDye800CW-Aff02 at a dose of 10 nmol/mouse, in an administration volume of 0.2 mL. The experiments were carried out at 15 min, 30 min, 1 h, 2 h, 4 h, 6 h, 24 h and 48 hours after intravenous administration of the conjugate.
Regions of interest (ROIs) were drawn on a reference background healthy region (hind leg's muscle) of the mouse and on whole body for each fluorescence image at every time point to evaluate signal intensity in the tissues, expressed as Average Radiant Efficiency (see FIG. 5, reporting the fluorescence signal curves of IRDye800CW-Aff02 administered 10 nmol/mouse in Balb/c nu/nu mice).
Pharmacokinetic analysis of the signal was performed to evaluate the half time of the tested product by using a mono-exponential decay model and the results are reported in Table 3:
After sacrifice, several organs were collected for the measure of residual fluorescence (after 48h). The measurements of fluorescence signal intensity have been obtained from the analysis of each organ selecting an area of interest (ROIs) at the center of each sample. The analyzed organs were: kidney, lung, spleen, liver, muscle and heart.

Series [4] addresses T1, recombinant human protein hHER2 (R&D …). Description: BLI (Octet), hHER2 on Protein A biosensors, 1:1 fit. The method, then: as §1, §2
A curve fitting analysis was then performed in order to determine the dissociation equilibrium constant. The sensorgrams were analyzed using the Octet Data Analysis software 8.2 (ForteBio) with a 1:1 binding fit model to determine the dissociation equilibrium constant (Kd) and the related association and dissociation rate constants (kₒₙ and koff) with R² value assessing the fitting quality.

The target in another series is HER2 (Homo sapiens, UniProt P04626). In words: ELISA monitoring of anti-HER2 affitin selection. The settings on record: end of selection process. The format is binding. An excerpt: (§3) To selectively target HER2 receptor, a library of affitins has been enriched against the target by several consecutive rounds of screening (up to 6 rounds). The enrichment of anti-HER2 affitins has been followed after any selection round by ELISA assay monitoring, also controlling the condition of negligible binding to human (HSA), murine (MSA) and bovine (BSA) serum albumin.
On the technique in general: ELISA stands for enzyme-linked immunosorbent assay.

Series [5] deals with human (HSA), murine (MSA) and bovine (BSA) serum albumin. Description: ELISA control of binding to serum albumins during selection.
From the text: as §3

The test system of series [6] is SK-BR-3 breast adenocarcinoma cell line (overexpressing HER2 receptor). In words: Cell internalization assay (viability with Pe38 fusion), HER2 overexpressing cells. The format is cell-based. The method, then: (§4) The cells internalization of Aff01 was evaluated using a dedicated cell-based assay. Briefly, Aff01 was tagged with SEQ ID NO: 3 (i.e. forming sequence Aff02-0) and then fused to a truncated portion of Pseudomonas exotoxin A, wherein the cell internalization domain of the toxin is removed, thus forming a final peptide with the sequence as set out in SEQ ID NO: 5. Such truncated form (Pe38) needs to be internalized by means of the Aff01 to keep its cytotoxic activity.
(§5) To test internalization, then, the viability of the breast adenocarcinoma cell line SK-BR-3 (overexpressing HER2 receptor) and of the breast cancer cell line MCF-7 (low expressing HER2 receptor) was measured at different nanofitin concentrations.

In series [7] the test system is MCF-7 breast cancer cell line (low expressing HER2 receptor). Description: Cell internalization assay (viability with Pe38 fusion), HER2 low expressing cells. The format is cell-based. The settings on record: Aff01 tested as fusion Aff02-0/Pe38 (SEQ ID NO: 5); different nanofitin concentrations. As for the experimental part:
as §4, §5

B1: IRDye800CW-Aff02 conjugate (designed binder)
chain: MRGSHHHHHHGSVKVKFWGAGVEKEVDTSKITWVTRSGKYVIFTYDDNGKAGPGRVPEKDAPKELLDMLARAEREKC
modifications: chain 1 pos 77: Cys carrying IRDye800CW through a maleimide thioether, written C
notes: Aff02 was reduced with TCEP, then coupled to IRDye800CW-maleimide at the C-terminal Cys
The term Kd denotes the free concentration of one partner at which half of the binding sites on the other are occupied at equilibrium, for simple one-to-one binding. Take B1: in series [1], the Kd came out at 1.6 nM.

B2: Aff02: 77 aac variant of SEQ ID NO: 1 with a Cys at the C-terminus and a hexahistidine tag at the N-terminus (protein)
chain: B1 chain
Take B2: the “competition with trastuzumab and pertuzumab for binding to HER2, assay c / overall” value with HER2/Fc chimeric protein (antibody-biotin curves in presence or absence of Aff02, FIGS. 4a, 4b) is given as “no competition; also recorded: do not compete for binding to HER2”. Further, the “binding to HER2 receptor (ELISA)” value with HER2/Fc chimeric protein (assay a, FIG. 2) is “binders for HER2 receptor”. In addition, in the series with HER2/Fc chimeric protein (fixed 10 μg/mL Aff02, variable antibody-biotin, FIGS. 3a, 3b), the “Aff02 response (anti RSGH-Tag Ab detection) with increasing trastuzumab-biotin or pertuzumab-biotin, assay b” value is on record as “negligible response decrease”. Further, the “epitope competition, assay a” value with HER2/Fc chimeric protein (variable Aff02 (0.01-10000 ng/mL) with 0.2 μg/mL trastuzumab-biotin or pertuzumab-biotin, FIG. 2) is “epitopes recognized by trastuzumab and pertuzumab are different from that recognized by Aff02”.

B3: IRDye800CW-Aff02: fluorophore IRDye800CW-maleimide conjugated to the C-terminal cysteine of affitin Aff02 (conjugate)
chain: B1 chain
modifications: cyclised or stapled
Turning to B3, the “Kd (dissociation equilibrium constant) of the complex IRDye800CW-Aff02 conjugate/hHER2” value in [2] (steady state analysis) is reported as “in the nanomolar range”. Moreover, the clearance pathway entry in series [3] is “preferably cleared by the renal pathway”. In series [3] (iv), the “Half life in muscle” value was found to be 2.122 h; the “Half life in whole body” value was 2.196 h; the “average half-life (muscle and whole body)” value was 2.16 h.

B4: affitin Aff02-0 (designed binder)
chain: MRGSHHHHHHGSVKVKFWGAGVEKEVDTSKITWVTRSGKYVIFTYDDNGKAGPGRVPEKDAPKELLDMLARAEREK
notes: also called unlabeled Aff02-0 affitin
The koff is a measure of how fast the partners let go of each other. Usually kon stands for a measure of how fast the partners come together. Consider B4, for which, in series [2] (unlabeled affitin), the koff was 8.3 ± 0.1 × 10^−3 s^−1 and the kon was 4.5 ± 0.1 × 10^5 M^−1s^−1. In series [4], the dissociation constant (Kd) worked out at 18 nM, the dissociation rate constant (koff) worked out at 0.0083 s⁻¹ and the kon is 450000 M⁻¹ s⁻¹.

B5: Aff01: 64 aac anti-HER2 affitin, SEQ ID NO: 1 (protein)
chain: VKVKFWGAGVEKEVDTSKITWVTRSGKYVIFTYDDNGKAGPGRVPEKDAPKELLDMLARAEREK
With B5, the “affinity to HER2” value in the series with HER2 is “nanomolar affinity”. For the same molecule, the binding to albumin entry in [5] is given as “absence of binding to albumin”. For the same molecule, the “cytotoxic induction (cell viability) on SK-BR-3 cells” value in series [6] (Aff01 tested as fusion Aff02-0/Pe38 (SEQ ID NO: 5), different nanofitin concentrations) is listed as “dose-dependent cytotoxic induction”. Also, in [6] (concluded from cell death induction by Pe38 fusion), the “cell internalization through HER2 receptor” value was “effective transport of Pe38 through HER2 receptor”. Also, the “alteration of cell viability on MCF-7 cells” value in series [7] is recorded as “no significant alterations”.
